Legend:
Mcm3 = target: T1, Mcm3 (budding yeast, UniProt P24279 1-971); assay: cryo-EM structure; MCM loading reaction on nucleosome-flanked ARS1 DNA (15 nM) with CDK-phosphorylated Orc6-4A ORC (40 nM) and MCM-Cdt1 (80 nM), 2.2 mM ATP, 30°C 30 min; SH and DH particles from the same data; conditions: both partners purified
T1 construct: Mcm3, budding yeast

Mcm4 = target: T2, Mcm4 (budding yeast, UniProt P30665 1-933); assay: as above; conditions: both partners purified
T2 construct: Mcm4, budding yeast
T2 sequence: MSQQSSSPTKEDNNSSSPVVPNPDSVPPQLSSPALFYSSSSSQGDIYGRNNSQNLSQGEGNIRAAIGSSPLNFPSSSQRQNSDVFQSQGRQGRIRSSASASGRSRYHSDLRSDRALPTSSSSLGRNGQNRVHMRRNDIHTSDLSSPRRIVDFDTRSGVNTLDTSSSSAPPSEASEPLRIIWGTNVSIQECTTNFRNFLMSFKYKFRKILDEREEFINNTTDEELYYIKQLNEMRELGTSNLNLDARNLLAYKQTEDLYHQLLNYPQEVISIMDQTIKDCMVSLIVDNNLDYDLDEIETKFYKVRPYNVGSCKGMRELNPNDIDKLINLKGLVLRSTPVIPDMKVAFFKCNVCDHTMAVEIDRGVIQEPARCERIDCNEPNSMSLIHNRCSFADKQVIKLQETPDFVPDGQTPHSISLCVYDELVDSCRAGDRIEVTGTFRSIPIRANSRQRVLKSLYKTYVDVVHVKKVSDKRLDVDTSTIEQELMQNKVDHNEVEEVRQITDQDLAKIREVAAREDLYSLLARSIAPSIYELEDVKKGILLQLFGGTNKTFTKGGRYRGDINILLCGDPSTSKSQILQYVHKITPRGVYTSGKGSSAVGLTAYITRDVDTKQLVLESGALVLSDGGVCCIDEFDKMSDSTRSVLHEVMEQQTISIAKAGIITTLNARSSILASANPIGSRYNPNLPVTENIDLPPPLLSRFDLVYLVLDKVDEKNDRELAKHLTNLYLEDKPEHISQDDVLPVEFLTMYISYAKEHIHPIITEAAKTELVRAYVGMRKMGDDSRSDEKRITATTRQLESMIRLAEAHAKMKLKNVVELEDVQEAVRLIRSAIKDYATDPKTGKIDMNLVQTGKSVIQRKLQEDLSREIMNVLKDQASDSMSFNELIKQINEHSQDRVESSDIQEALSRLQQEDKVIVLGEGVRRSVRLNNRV

T1 sequence (P24279 whole entry): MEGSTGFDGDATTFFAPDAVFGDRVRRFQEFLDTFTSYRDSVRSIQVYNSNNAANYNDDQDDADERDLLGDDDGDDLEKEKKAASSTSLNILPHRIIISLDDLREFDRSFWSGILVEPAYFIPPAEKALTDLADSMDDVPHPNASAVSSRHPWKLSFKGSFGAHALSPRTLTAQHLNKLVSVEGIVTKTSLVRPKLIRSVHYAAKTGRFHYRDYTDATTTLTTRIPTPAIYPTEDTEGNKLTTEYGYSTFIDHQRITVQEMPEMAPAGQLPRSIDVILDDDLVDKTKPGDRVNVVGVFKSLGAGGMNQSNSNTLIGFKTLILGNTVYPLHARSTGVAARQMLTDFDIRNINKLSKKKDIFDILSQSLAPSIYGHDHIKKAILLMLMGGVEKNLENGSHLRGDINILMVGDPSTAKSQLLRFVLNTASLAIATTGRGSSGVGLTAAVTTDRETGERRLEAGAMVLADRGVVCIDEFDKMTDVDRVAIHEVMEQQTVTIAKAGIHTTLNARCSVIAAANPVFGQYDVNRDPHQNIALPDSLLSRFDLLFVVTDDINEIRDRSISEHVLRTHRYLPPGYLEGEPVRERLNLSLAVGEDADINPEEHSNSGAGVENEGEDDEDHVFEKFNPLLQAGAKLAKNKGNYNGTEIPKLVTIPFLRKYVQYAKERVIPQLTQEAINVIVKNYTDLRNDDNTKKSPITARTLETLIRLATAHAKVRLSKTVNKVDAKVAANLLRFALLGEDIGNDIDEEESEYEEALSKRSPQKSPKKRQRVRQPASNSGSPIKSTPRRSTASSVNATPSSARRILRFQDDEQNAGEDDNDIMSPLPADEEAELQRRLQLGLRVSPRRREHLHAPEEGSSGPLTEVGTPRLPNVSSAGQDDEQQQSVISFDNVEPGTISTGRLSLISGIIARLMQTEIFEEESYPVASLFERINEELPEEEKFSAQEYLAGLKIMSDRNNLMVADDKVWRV

B1: Mcm7 (natural protein, budding yeast)
chain: MSAALPSIQLPVDYNNLFNEITDFLVTFKQDTLSSDATRNENEDENLDAENIEQHLLEKGPKYMAMLQKVANRELNSVIIDLDDILQYQNEKFLQGTQADDLVSAIQQNANHFTELFCRAIDNNMPLPTKEIDYKDDVLDVILNQRRLRNERMLSDRTNEIRSENLMDTTMDPPSSMNDALREVVEDETELFPPNLTRRYFLYFKPLSQNCARRYRKKAISSKPLSVRQIKGDFLGQLITVRGIITRVSDVKPAVEVIAYTCDQCGYEVFQEVNSRTFTPLSECTSEECSQNQTKGQLFMSTRASKFSAFQECKIQELSQQVPVGHIPRSLNIHVNGTLVRSLSPGDIVDVTGIFLPAPYTGFKALKAGLLTETYLEAQFVRQHKKKFASFSLTSDVEERVMELITSGDVYNRLAKSIAPEIYGNLDVKKALLLLLVGGVDKRVGDGMKIRGDINVCLMGDPGVAKSQLLKAICKISPRGVYTTGKGSSGVGLTAAVMKDPVTDEMILEGGALVLADNGICCIDEFDKMDESDRTAIHEVMEQQTISISKAGINTTLNARTSILAAANPLYGRYNPRLSPLDNINLPAALLSRFDILFLMLDIPSRDDDEKLAEHVTYVHMHNKQPDLDFTPVEPSKMREYIAYAKTKRPVMSEAVNDYVVQAYIRLRQDSKREMDSKFSFGQATPRTLLGIIRLSQALAKLRLADMVDIDDVEEALRLVRVSKESLYQETNKSKEDESPTTKIFTIIKKMLQETGKNTLSYENIVKTVRLRGFTMLQLSNCIQEYSYLNVWHLINEGNTLKFVDDGTMDTDQEDSLVSTPKLAPQTTASANVSAQDSDIDLQDA
notes: Mcm7, budding yeast
- binding result (Mcm3): binds
- binding result (Mcm4): binds

Source: article doi:10.1101/2024.01.10.575016, “Cell Cycle Regulation has Shaped Budding Yeast Replication Origin Structure and Function” (bioRxiv, 2024)
